Data taken from the supplement of paper PMC11246515.
± gives the standard deviation of the averaged measurements.

Assay: total protein half-life in vivo (active degradation + dilution); higher = more stable protein
[1] = E. coli NCM3722 delta-clpP delta-lon delta-hslV, growth: N-lim chemostat, doubling time 6 h
[2] = E. coli NCM3722 delta-clpP, growth: N-lim chemostat, doubling time 6 h
[3] = E. coli NCM3722 delta-hslV, growth: N-lim chemostat, doubling time 6 h
[4] = E. coli NCM3722 delta-lon, growth: N-lim chemostat, doubling time 6 h
[5] = E. coli NCM3722 delta-smpB, growth: N-lim chemostat, doubling time 6 h
[6] = wild type E. coli NCM3722, growth: C-lim chemostat, doubling time 3 h
[7] = wild type E. coli NCM3722, growth: C-lim chemostat, doubling time 6 h
[8] = wild type E. coli NCM3722, growth: C-lim chemostat, doubling time 12 h
[9] = wild type E. coli NCM3722, growth: N-lim chemostat, doubling time 6 h
[10] = wild type E. coli NCM3722, growth: N-lim chemostat, doubling time 12 h
[11] = wild type E. coli NCM3722, growth: P-lim chemostat, doubling time 6 h
[12] = wild type E. coli NCM3722, growth: P-lim chemostat, doubling time 12 h

Sequence	total protein half-life in vivo [1] [h]	total protein half-life in vivo [2] [h]	total protein half-life in vivo [3] [h]	total protein half-life in vivo [4] [h]	total protein half-life in vivo [5] [h]	total protein half-life in vivo [6] [h]	total protein half-life in vivo [7] [h]	total protein half-life in vivo [8] [h]	total protein half-life in vivo [9] [h]	total protein half-life in vivo [10] [h]	total protein half-life in vivo [11] [h]	total protein half-life in vivo [12] [h]
MELSSLTAVSPVDGRYGDKVSALRGIFSEYGLLKFRVQVEVRWLQKLAAHAAIKEVPAFAADAIGYLDAIVASFSEEDAARIKTIERTTNHDVKAVEYFLKEKVAEIPELHAVSEFIHFACTSEDINNLSHALMLKTARDEVILPYWRQLIDGIKDLAVQYRDIPLLSRTHGQPATPSTIGKEMANVAYRMERQYRQLNQVEILGKINGAVGNYNAHIAAYPEVDWHQFSEEFVTSLGIQWNPYTTQIEPHDYIAELFDCVARFNTILIDFDRDVWGYIALNHFKQKTIAGEIGSSTMPHKVNPIDFENSEGNLGLSNAVLQHLASKLPVSRWQRDLTDSTVLRNLGVGIGYALIAYQSTLKGVSKLEVNRDHLLDELDHNWEVLAEPIQTVMRRYGIEKPYEKLKELTRGKRVDAEGMKQFIDGLALPEEEKARLKAMTPANYIGRAITMVDELK [P0AB89]	4.77 ± 0.41	5.24 ± 0.62	5.18 ± 0.54	5.11 ± 0.4	4.63 ± 0.12	3.01 ± 0.1	5.55 ± 0.32	10.5 ± 0.86	4.64 ± 0.062	8.57 ± 0.16	5.79 ± 0.6	12.25 ± 0.033
MELYREYPAWLIFLRRTYAVAAGVLALPFMLFWKDRARFYSYLHRVWSKTSDKPVWMDQAEKATGDFY [P0AAU2]	2.55 ± 0.61	–	–	–	1.38 ± 0.15	–	–	3.9	2.33	3.85	0.733	3.35 ± 1.6
MENIMNNPVIGVVMCRNRLKGHATQTLQEKYLNAIIHAGGLPIALPHALAEPSLLEQLLPKLDGIYLPGSPSNVQPHLYGENGDEPDADPGRDLLSMAIINAALERRIPIFAICRGLQELVVATGGSLHRKLCEQPELLEHREDPELPVEQQYAPSHEVQVEEGGLLSALLPECSNFWVNSLHGQGAKVVSPRLRVEARSPDGLVEAVSVINHPFALGVQWHPEWNSSEYALSRILFEGFITACQHHIAEKQRL	–	2.93	–	–	–	2.64	–	10.5	–	–	–	10.6 ± 0.45
MENKSARAKVQAFGGFLTAMVIPNIGAFIAWGFITALFIPTGWLPNEHFAKIVGPMITYLLPVMIGSTGGHLVGGKRGAVMGGIGTIGVIVGAEIPMFLGSMIMGPLGGLVIKYVDKALEKRIPAGFEMVINNFSLGIAGMLLCLLGFEVIGPAVLIANTFVKECIEALVHAGYLPLLSVINEPAKVLFLNNAIDQGVYYPLGMQQASVNGKSIFFMVASNPGPGLGLLLAFTLFGKGMSKRSAPGAMIIHFLGGIHELYFPYVLMKPLTIIAMIAGGMSGTWMFNLLDGGLVAGPSPGSIFAYLALTPKGSFLATIAGVTVGTLVSFAITSLILKMEKTVETESEDEFAQSANAVKAMKQEGAFSLSRVKRIAFVCDAGMGSSAMGATTFRKRLEKAGLAIEVKHYAIENVPADADIVVTHASLEGRVKRVTDKPLILINNYIGDPKLDTLFNQLTAEHKH	–	–	–	–	–	2.08	3.65	8.89	–	–	–	–
MENNEIQSVLMNALSLQEVHVSGDGSHFQVIAVGELFDGMSRVKKQQTVYGPLMEYIADNRIHAVSIKAYTPAEWARDRKLNGF [P0A9W6]	5.36 ± 0.32	3.86 ± 0.21	4.35 ± 0.56	5.87 ± 1.2	4.08 ± 0.3	3.11 ± 0.42	4.5	7.8 ± 0.37	4.09 ± 0.043	7.378 ± 0.011	4.79 ± 0.25	10.8 ± 1.1
MEPLREIRNRLLNGWQLSKMHTFEVAARHQSFALAAEELSLSPSAVSHRINQLEEELGIQLFVRSHRKVELTHEGKRVYWALKSSLDTLNQEILDIKNQELSGTLTLYSRPSIAQCWLVPALGDFTRRYPSISLTVLTGNDNVNLQRAGIDLAIYFDDAPSAQLTHHFLMDEEILPVCSPEYAQRHALTNTVINLCHCTLLHDRQAWSNDSGTDEWHSWAQHYAVNLPTSSGIGFDRSDLAVIAAMNHIGVAMGRKRLVQKRLASGELVAPFGDMTVKCHQHYYITTLPGRQWPKIEAFIIWLREQVKTTS	5.88	5.73 ± 0.3	6.65 ± 0.47	7.48 ± 0.075	6.21 ± 1.6	2.74	–	11 ± 1.1	5.13	–	–	–
MEQLRAELSHLLGEKLSRIECVNEKADTALWALYDSQGNPMPLMARSFSTPGKARQLAWKTTMLARSGTVRMPTIYGVMTHEEHPGPDVLLLERMRGVSVEAPARTPERWEQLKDQIVEALLAWHRQDSRGCVGAVDNTQENFWPSWYRQHVEVLWTTLNQFNNTGLTMQDKRILFRTRECLPALFEGFNDNCVLIHGNFCLRSMLKDSRSDQLLAMVGPGLMLWAPREYELFRLMDNSLAEDLLWSYLQRAPVAESFIWRRWLYVLWDEVAQLVNTGRFSRRNFDLASKSLLPWLA [P0AB03]	5.11	4.02	2.54 ± 0.47	2.51	1.57	2.16 ± 0.1	3.92 ± 0.21	6.84 ± 0.48	–	–	3.8	7.86
MEQRHITGKSHWYHETQSSTTEYDVLPLVPEAAKVSDPFLLDVILEKETLAPFLSWLDPARVLAVDLFPDQLTVTRSQTFTAYERLSTALTVAQVCGVQRLCNYYSARLTPLPGPDSTRESNHRLAQITQYARQLASSPSIIDNRSRQHLNDVGLTAWDCVIISQIIGFIGFQARTIATFQAYLGHPVRWLPGLEIQNYADASLFADESLRWRSSYEVEKLPEEHTKSSTAELCQLAEILSLHPISLSLLEKLLNSTRGNTQPDNQLAALLCARINGSPACFATCMDSSNEYKKISTLMRKGENEINQWADRHSVERATVQAIQWLTRAPDRFSAAQFSPLLEHEKSSTQIINLLVWSGLCGWINRLKIALGETY	6.43 ± 1.4	1.97 ± 0.21	1.97 ± 0.55	1.26	1.07 ± 0.024	1.25 ± 0.085	1.21 ± 0.12	1.93 ± 0.13	1.31 ± 0.044	6.39 ± 6	1.32 ± 0.4	2.65 ± 0.49
MEQSVANLVDMRDVSFTRGNRCIFDNISLTVPRGKITAIMGPSGIGKTTLLRLIGGQIAPDHGEILFDGENIPAMSRSRLYTVRKRMSMLFQSGALFTDMNVFDNVAYPLREHTQLPAPLLHSTVMMKLEAVGLRGAAKLMPSELSGGMARRAALARAIALEPDLIMFDEPFVGQDPITMGVLVKLISELNSALGVTCVVVSHDVPEVLSIADHAWILADKKIVAHGSAQALQANPDPRVRQFLDGIADGPVPFRYPAGDYHADLLPGS	6.3 ± 0.54	6.19 ± 0.062	–	–	5.79 ± 0.68	3.08 ± 0.07	7.05 ± 1.1	12.3 ± 2	6.18 ± 0.23	> 16	7.04 ± 0.68	14.1 ± 0.78
